Laboratory results as given in the nanobody polyreactivity screen of Harvey et al. (2022).

Test: yeast display, Sf9 membrane polyspecificity reagent, FACS + sequencing; frameworks hold sequencing errors
In short: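 After 36–48 hours of galactose induction, yeast (Saccharomyces cerevisiae BJ5465) displaying a synthetic nanobody library were stained at 4 °C for 1 hour with 10% biotinylated, detergent-solubilized Sf9 membrane reagent. Streptavidin microbeads enriched the stained cells before FACS sorting into low and high (top ~1%) gates on anti-HA and streptavidin fluorescence. Each clone's polyreactivity label reflects its gate of origin.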

For “QVQLVESGGGLVQAGGCLRKSCAASGFTFFSYARGWSRQAPGKERELVAGINSSGGSTNYADSVKGRFTISRDNAKNTVYLLMNSLKPEDTAVYYCNADLRSEYDYWGQGTQVTVSS”, which “polyreactivity (PSR sort gate)” value is on record?
The value was “low polyreactivity”.

Which “polyreactivity (PSR sort gate)” value does the source give for “QVQLVESGGGLVQAGGCLRLSCAASGFTFIYYVMGWYRQAPGIERELVAAINGRGDRKYYADSVKGRFTISRDNAKNTVYLQMTSLKPEETAVYYCNARTHTWGYSAKFDYWGQGTQVTVSS” here?
Its value is “high polyreactivity”.

For “QVQLVESGGGLVQAGGCLRVSCAASGFISGYYAMGGYSQAPGIERELVAAIDWIGGSTYYAESVKGRFTISRDNAKNTEYFQMNSLKPEDTAVYDCAASYKYGSSWGDGYWGQGTQVTVSS”, which “polyreactivity (PSR sort gate)” value is on record?
Its value is “low polyreactivity”.

With “QVQLVESGGGLVQAGGGLRLSCAASGFTFTKYAMGLYRQAPGKERELVAAITSGTSTYYADSVKGRFTISRDNAKNTVYLQMNSLKPEDTAVYYCAAPLYGRYSYGYWGQGTQVTVSS” as the sequence, how does the “polyreactivity (PSR sort gate)” value read?
The value was “high polyreactivity”.

With “QVQLVESGGGLVQAGGGLRLSCAASGRTIPTYAMGWYRQAPGKERELVATITSAGSTNYADSVKGRFTISRDNAKNTVYLQMNSLKPEDTAVYYCAARRRLAWGQGTQVTVSS” as the sequence, how does the “polyreactivity (PSR sort gate)” value read?
The value was “high polyreactivity”.

With “QVQLVESGGGLVQAGGGLRLSCAASGSYYKYYAMGWYRQAPGKEREFVAAITRSGGSTYYADSVKGRFTISRDNAKNTDYLQMNSLKPEDTAVYYCATDLRTRNYDYWGQGTQVTVSS” as the sequence, how does the “polyreactivity (PSR sort gate)” value read?
Its value is “high polyreactivity”.

For “QVQLVESGGGLVQAGGILRLSCAACGITVTSYAMGWYRQAPGKERELVAVITGTGGITYYADSVKGRFTISRDNAKNTVYLQMNSLKPEDTAVYYCAAELELREYDYWGQGNQVTVSS”, which “polyreactivity (PSR sort gate)” value is on record?
Its value is “high polyreactivity”.

With “QVQLVESGGGLVQAGGILRLSCAASGFIFNSYAMGWYRQAPGKERELVAAITKSGGRTYYADSVKGRFTISRDNEKNTVYFQMNSLKPEDTAVYYCAARAYRSSVYRGDYWGQGTQVTVSS” as the sequence, how does the “polyreactivity (PSR sort gate)” value read?
Its value is “high polyreactivity”.

With “QVQLVESGGGLVQAGGILRLSCAASGFIIRGNVMGWYRQAPGKERELVAAISGRGGSTYYADSVKGRFTISRDNAKNTVYLQMNSLKPEDTAVYYCNAAGLYNSRLDYWGQGTQVTVSS” as the sequence, how does the “polyreactivity (PSR sort gate)” value read?
The value was “high polyreactivity”.

For “QVQLVESGGGLVQAGGILRLSCAASGFTFQNNAMGWYRQAPGKERELVARITRSDGSTYYADSVKGRFTISRDNAKNTVYLQMNSLKPEDNAVYYCAARYGLLGSSRGGYWGQGTQVTVSS”, which “polyreactivity (PSR sort gate)” value is on record?
The value was “low polyreactivity”.

For “QVQLVESGGGLVQAGGILRLSCAASGFTFWYYVMGWYRQAPGKERELVAAITSSGDSTYYADSVKGRFTISRDNAKNTVYLQMNSLKPEDTAVYYCAAQRYPFERVYWGQGTQVTVSS”, which “polyreactivity (PSR sort gate)” value is on record?
Its value is “high polyreactivity”.

Which “polyreactivity (PSR sort gate)” value does the source give for “QVQLVESGGGLVQAGGILRLSCAASGFTSWDNDMGWYRQAPGKERELVAAISRGGSTNYADSVKGRFTLSRDNAKNTVYLQMNSLKPEDPAVYYCATAAVTPVWYDYWGQGTQVTVSS” here?
The value was “low polyreactivity”.

Which “polyreactivity (PSR sort gate)” value does the source give for “QVQLVESGGGLVQAGGILRLSCAASGIIFGYNAMGWYRQAPGKERELVAAISYGGGRTYYADSVKGRFTISRDNAKNSVYLQMNSLKPEDTAVYYCAAQYFASRSYGYDYWGQGTQVTVSS” here?
The value was “high polyreactivity”.

For “QVQLVESGGGLVQAGGILRLSCAASGIIFRKNAMGWYRQAPGKERELVAAISSTGASTNYADSVKGRFTISRDNAKNTVYLQMNSLKPEDTAVYYCAASRTRYWKYDYWGPGTQVTVSS”, which “polyreactivity (PSR sort gate)” value is on record?
Its value is “high polyreactivity”.

Which “polyreactivity (PSR sort gate)” value does the source give for “QVQLVESGGGLVQAGGILRLSCAASGLIIGEYDMGWYRQAPGKERELVAAMSDRGTSTYYADSVKGRFTISRDNAKNTVDLPMNSLKPEDTAVYYCATDRIYYYSWEYDYWGQGTQVTVSS” here?
The value was “low polyreactivity”.

For “QVQLVESGGGLVQAGGILRLSCAASGLTFEQYAMGWYRQAPGKERELVAAISWSGGRTYYADSVKGRFTISRDNAKNTVYLQMNSLKPEDTAVYYCAKDRGCPFYWRYPLGYWGQGTQVTVSS”, which “polyreactivity (PSR sort gate)” value is on record?
The value was “high polyreactivity”.

Which “polyreactivity (PSR sort gate)” value does the source give for “QVQLVESGGGLVQAGGILRLSCAASGNIFAFYAMGWYRQAPVKERELVAAITDGTTTNYADSVKGRFTISRDNAKNTVYLQMNSLIPEDTAVYYSAADTGWWPWLERFRHYYYWGQGTQVTVSS” here?
Its value is “low polyreactivity”.

With “QVQLVESGGGLVQAGGILRLSCAASGRIFCSYAMGWYRQAPGKERELVAAITRGASTNYADSVKGRFTISRDNAKNIVYLQMNSLKPEDTAVYYCAAGWGRYPILGYYYWGQGTQVTVSS” as the sequence, how does the “polyreactivity (PSR sort gate)” value read?
Its value is “high polyreactivity”.

With “QVQLVESGGGLVQAGGILRLSCAASGRIFGPYTMGWYRQAPGKEREFVAAISRSGDSTYYADSVKGRFTISRDNAKNTVYLQMNSLKPEDTAVYYCAAKYGTRLSAYYYWGQGTQVTVSS” as the sequence, how does the “polyreactivity (PSR sort gate)” value read?
Its value is “high polyreactivity”.

Which “polyreactivity (PSR sort gate)” value does the source give for “QVQLVESGGGLVQAGGILRLSCAASGRIFQHYPMGWYRQAPGKERELVAAISRSGDSTYYADSVKGRFTISRDNAKNTVYLQMNSLKPEDTAVYYCKIVRYSFLYDSWGQGTQVTVSS” here?
Its value is “high polyreactivity”.

With “QVQLVESGGGLVQAGGILRLSCAASGRIFSYYAKGWYRQAPGKERELVAAITRGGSTNYADSVKGRFTISRDNAKNSVYLQMNSLKPEDTAVYYFAVRGGYTGPTYNYWGQGTQVTVSS” as the sequence, how does the “polyreactivity (PSR sort gate)” value read?
Its value is “high polyreactivity”.

For “QVQLVESGGGLVQAGGILRLSCAASGRTFGGNAIGWYRQAPGKERELVAAITVSAGHTYYADSVKGRFTISRDNAKNTVYLQMNSLKPEDTAVYYCAAGVPYYWSYVWKHPRFDHWGQGTQVTVSS”, which “polyreactivity (PSR sort gate)” value is on record?
Its value is “low polyreactivity”.

Which “polyreactivity (PSR sort gate)” value does the source give for “QVQLVESGGGLVQAGGILRLSCAASGRTFGINAMGWYRQAPGKERELVARIRKTVGSTYYADSVKGRFTISRDNAKNTVYLQMNSLKPEDTAVYYCAADLRYGYLYPYDSWGQGTQVTVSS” here?
Its value is “high polyreactivity”.

With “QVQLVESGGGLVQAGGILRLSCAASGRTFGIYVMGWYRQAPGKERELVAAIRSGGTTNYADTVKGRFTISRDNAKNTVYLKMNSLKPEDTAVYYCAASSRRSWTYDYWGQGTQVTVSS” as the sequence, how does the “polyreactivity (PSR sort gate)” value read?
Its value is “high polyreactivity”.

For “QVQLVESGGGLVQAGGILRLSCAASGRTFGLYAMGWYRQAPGKERELVASITRSGVSTTYADSVKGRFTISRDNAKNTVYLQMNSLKPVDTAVYYCNTDYTGPDGTDEYDYWGQGTQVTVSS”, which “polyreactivity (PSR sort gate)” value is on record?
Its value is “low polyreactivity”.

Which “polyreactivity (PSR sort gate)” value does the source give for “QVQLVESGGGLVQAGGILRLSCAASGRTFRIYAMGRYRPAPAKVREFVAGITRSDGSTYYADSVKGRFTISRDNAKNTVSFQMNSLKPVDTEVYYCYVEPYSHYRRTEDYWGQGTEVTVSS” here?
The value was “high polyreactivity”.

For “QVQLVESGGGLVQAGGILRLSCAASGRTFSSNAMGWYRQAPGKERELVAVISSGGSTYYADSVNGRFTISRDNAKNTVYLQLNSLKPEDTAVYYCAAAGGPSGYYYESDYWGQGTQVTVSS”, which “polyreactivity (PSR sort gate)” value is on record?
The value was “high polyreactivity”.

With “QVQLVESGGGLVQAGGILRLSCAASGRTFVRNTMGWYRQAPGKERELVAVISRSGGSTYYADSVKGRFTISRDNAKNTVYLQMNRLKPEDTAVYYCNADTYSAGDYWGQGSQVTVSS” as the sequence, how does the “polyreactivity (PSR sort gate)” value read?
Its value is “high polyreactivity”.

For “QVQLVESGGGLVQAGGILRLSCAASGRTFYYYAMGWYRHERGKERELVAAISISGGTNYADSVKGRFTISRDNAKNTVYLQMNSLKPEDTAVYYCAAYLRHESPSIWDRYDYWGQGTQVTVSS”, which “polyreactivity (PSR sort gate)” value is on record?
Its value is “low polyreactivity”.

Which “polyreactivity (PSR sort gate)” value does the source give for “QVQLVESGGGLVQAGGILRLSCAASGRTIDHYAKGSYRKAPGKERELVAAISTTGGSTYYADSVKGRFTISRDNAKNTVYLQMNSLKPADTAVYYCAARGLRTGGYWGQGTQVTVSS” here?
The value was “high polyreactivity”.

With “QVQLVESGGGLVQAGGILRLSCAASGRTLDYSAMGWYRQAPGKERELVASITSGGSTNYADSVKGRFTISRDTAKNTVYLQMNSLKPEDTEVYYCAADSAFYRDVKSNYWGQGTQVTVSS” as the sequence, how does the “polyreactivity (PSR sort gate)” value read?
The value was “low polyreactivity”.

With “QVQLVESGGGLVQAGGILRLSCAASGRTYGGYAMGWYRQAPGKERELVASITSTGGTHYSDSVKGRFTISRDNAKNTVYLQMNSLKPEDTAVYYFAAGYYYWKYDYWGQGTQVTVSS” as the sequence, how does the “polyreactivity (PSR sort gate)” value read?
The value was “high polyreactivity”.

Which “polyreactivity (PSR sort gate)” value does the source give for “QVQLVESGGGLVQAGGILRLSCAASGSIFGSYAMGWYRQAPGKERELVAGITYRGSSTYYADSVKGRFTISRDNAKNTVYLQMNSLKPEDTAVYYCAADPVFDEYDYWGQGTQVTVSS” here?
The value was “low polyreactivity”.

With “QVQLVESGGGLVQAGGILRLSCAASGSIFRVYAMGWYRQAPGKVRELVASISRRGGSTYYADSVKGRFTISRDNAKNTVYLQMNSLKPEDTAVYYCAATTYSGFDYCGQGTQVTVSS” as the sequence, how does the “polyreactivity (PSR sort gate)” value read?
Its value is “high polyreactivity”.

With “QVQLVESGGGLVQAGGILRLSCAASGSIFSSYGMGRYRQAPGKERELVAAITRGGGSTYYADSVKGRFTISRDNAKNTVYLQMNSLKPEDTAVYYCAARGWRYSYTSVLFDYWGQGTQVTVSS” as the sequence, how does the “polyreactivity (PSR sort gate)” value read?
Its value is “high polyreactivity”.

With “QVQLVESGGGLVQAGGILRLSCAASGSIFYGNDMGWYRQEPGKEREFVAGISWSGGSTYYADSVKGRFTISRDNAKNTVYVQMNSLKPEETAVYYCAAVRWGSYTLSDDYWGQGTQVTVSS” as the sequence, how does the “polyreactivity (PSR sort gate)” value read?
Its value is “low polyreactivity”.

With “QVQLVESGGGLVQAGGILRLSCAASGSIYKPNTMGWYRQAPGKERELVAAITRGGRTKYADSVKGRFTISRDNAKNTVYLQMNSLKPEDTAVYYCNKARYTVISYDEYDDWGQGTQVTGSS” as the sequence, how does the “polyreactivity (PSR sort gate)” value read?
The value was “high polyreactivity”.

Which “polyreactivity (PSR sort gate)” value does the source give for “QVQLVESGGGLVQAGGILRLSCAASGSIYSGYAMGWYIQAPAKEREFVAAITSTSGSTYYADSVKVRFTISRDNAKNSVYLQMNSLKPEDTAVYYWAGYRYRYYSYDSWGQGTHVTVSS” here?
The value was “high polyreactivity”.

For “QVQLVESGGGLVQAGGILRLSCAASGSTFAYNAMGWYRQEPGKERELFAAISWSGGTTYYADSVKGRFTISRDNAKTTVYLQMNSLKPEDTAVYYCNAVYYPSYQQVRAHDYWGQGTQVTVSS”, which “polyreactivity (PSR sort gate)” value is on record?
The value was “high polyreactivity”.

For “QVQLVESGGGLVQAGGILRLSCAASGSTFDYNTMGWYRQAPGKERELVAAISESGGSTYYADSVKGRFTISRDNAKNTVYLQMNSLKPEDTAVYYCATDDFGGYFGEYDYWGQGTQVTVSS”, which “polyreactivity (PSR sort gate)” value is on record?
Its value is “low polyreactivity”.

Which “polyreactivity (PSR sort gate)” value does the source give for “QVQLVESGGGLVQAGGILRLSCAASGSTFGYYTMGWYRQAPGKEREFVAAITRRGGSTYYADSVKGRFTISRDNAKNTVYLQMNSLKPEDTAVYYCAAESRYQPHYGYWGQGTQVTVSS” here?
The value was “high polyreactivity”.

Which “polyreactivity (PSR sort gate)” value does the source give for “QVQLVESGGGLVQAGGILRLSCAASGSTLTYYTMGWYRQAPGKERELVAHISWSSGRTYYADSVKGRFTISRDNAKNTVYLQMNSLKPEDTAVYYCNADRTYYRGLDYWGQGTQVTVSS” here?
The value was “high polyreactivity”.

Which “polyreactivity (PSR sort gate)” value does the source give for “QVQLVESGGGLVQAGGILRLSCAASGSTMGYYPMGWYRQEPGKERELVAAIRYSDGNTYYADSVKGRFTISRDTAKNTVYLQMNSLKPEDTAVYYCAADGGYYGRDYWGQGTQVTVSS” here?
Its value is “high polyreactivity”.
